The source of these data is patent US20050226876A1 (Hoffmann-La Roche, published 2005).

Assay [1] deals with T1, Fcγ receptor on human NK cells (FcγRIII) (human, UniProt P08637 17-254).
T1 construct: whole, on cells; also called FcγR presented on NK cells
The experiment in a line: FACS on NK cells from human blood, antibody 10 µg/ml; no antibody: 0.03.

The target of assay [2] is T2, human complement factor C3 (from human pooled serum) (human, UniProt P01024 23-1663, limits assumed).
T2 construct: The ELISA detects C3 (C3c) deposited on the coated antibody out of serum; also called C3c
The experiment in a line: C3 ELISA, antibody coated, human pooled serum; background OD405 0.098. The procedure: (§1) In principle, the ELISA plate is coated with concentration ranges of the antibody, to which human C1q or human pooled serum, as a source of C3, is added. C1q or […] binding is detected by an antibody directed against human C1q or […] followed by a peroxidase-labeled conjugate.

Assay [3] concerns the target T2, human complement factor C3 (from human …). The experiment in a line: C3 ELISA, antibody coated, human pooled serum. The procedure: as §1
Assay [4] has as its target T3, rat P-selectin (on thrombin-activated rat platelets) (rat, UniProt P98106 42-768).
T3 construct: whole, on cells
T3 sequence (looked up): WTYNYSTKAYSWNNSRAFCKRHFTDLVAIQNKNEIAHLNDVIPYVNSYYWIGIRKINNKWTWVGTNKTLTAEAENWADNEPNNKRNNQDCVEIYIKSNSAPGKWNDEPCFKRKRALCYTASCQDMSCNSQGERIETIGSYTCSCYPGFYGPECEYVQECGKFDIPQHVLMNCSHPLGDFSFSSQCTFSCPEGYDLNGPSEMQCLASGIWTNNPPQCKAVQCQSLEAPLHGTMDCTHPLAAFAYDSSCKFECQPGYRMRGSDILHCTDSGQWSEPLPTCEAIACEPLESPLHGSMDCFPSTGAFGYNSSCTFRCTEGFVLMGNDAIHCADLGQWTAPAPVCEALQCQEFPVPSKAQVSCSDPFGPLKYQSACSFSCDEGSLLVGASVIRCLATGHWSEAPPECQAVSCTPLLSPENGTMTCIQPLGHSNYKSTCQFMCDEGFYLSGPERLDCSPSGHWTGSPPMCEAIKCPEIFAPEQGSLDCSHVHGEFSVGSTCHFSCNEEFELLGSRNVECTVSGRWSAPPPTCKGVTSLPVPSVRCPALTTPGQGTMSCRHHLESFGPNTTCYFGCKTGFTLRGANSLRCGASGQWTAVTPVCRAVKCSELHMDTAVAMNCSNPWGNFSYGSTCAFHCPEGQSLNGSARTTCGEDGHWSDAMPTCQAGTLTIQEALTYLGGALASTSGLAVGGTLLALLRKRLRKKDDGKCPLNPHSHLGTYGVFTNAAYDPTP
The experiment in a line: rosetting assay: adhesion of thrombin-activated rat platelets to HL60 cells, FACS; absence of inhibition, shown as lack of cross-reactivity with rat P-selectin.

The target of assay [5] is T4, human complement factor C1q (human, UniProt P02745 23-245; P02746 28-253; P02747 29-245).
T4 construct: also called Clq
The experiment in a line: C1q ELISA, antibody coated; background OD405 0.079. The procedure:
as §1

Assay [6] concerns the target T4, human complement factor C1q. The experiment in a line: C1q ELISA, antibody coated 0.16-20 µg/ml. As to the method: as §1
Assay [7] concerns the target T5, cynomologus P-selectin (on thrombin-activated cynomologus platelets) (cynomologus monkey).
T5 chain: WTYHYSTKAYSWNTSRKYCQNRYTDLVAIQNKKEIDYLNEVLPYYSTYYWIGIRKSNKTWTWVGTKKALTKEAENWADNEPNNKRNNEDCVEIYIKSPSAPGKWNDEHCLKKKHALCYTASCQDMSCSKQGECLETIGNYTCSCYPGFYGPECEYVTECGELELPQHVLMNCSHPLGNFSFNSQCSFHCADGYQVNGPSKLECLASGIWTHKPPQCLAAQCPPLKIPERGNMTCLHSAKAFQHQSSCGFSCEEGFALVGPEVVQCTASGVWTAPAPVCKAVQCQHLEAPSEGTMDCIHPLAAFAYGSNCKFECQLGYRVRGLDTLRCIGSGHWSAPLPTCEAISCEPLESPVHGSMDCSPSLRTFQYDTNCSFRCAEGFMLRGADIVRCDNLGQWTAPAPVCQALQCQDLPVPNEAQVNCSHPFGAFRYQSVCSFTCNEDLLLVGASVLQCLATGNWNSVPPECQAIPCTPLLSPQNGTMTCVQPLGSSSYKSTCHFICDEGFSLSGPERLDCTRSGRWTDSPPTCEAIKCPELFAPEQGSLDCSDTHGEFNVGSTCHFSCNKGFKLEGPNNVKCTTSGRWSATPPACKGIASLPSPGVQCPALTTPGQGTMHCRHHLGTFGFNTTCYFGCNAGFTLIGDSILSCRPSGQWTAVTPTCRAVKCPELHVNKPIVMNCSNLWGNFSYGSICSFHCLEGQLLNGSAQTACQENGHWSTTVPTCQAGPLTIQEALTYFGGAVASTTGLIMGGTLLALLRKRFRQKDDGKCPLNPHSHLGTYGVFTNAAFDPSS
The experiment in a line: cell-based or functional assay.

The target in assay [8] is T1, Fcγ receptor on human NK cells (FcγRIII). The experiment in a line: FACS on NK cells from human blood.

T4 sequence (P02745 23-245 limits assumed, chain 1 of 3): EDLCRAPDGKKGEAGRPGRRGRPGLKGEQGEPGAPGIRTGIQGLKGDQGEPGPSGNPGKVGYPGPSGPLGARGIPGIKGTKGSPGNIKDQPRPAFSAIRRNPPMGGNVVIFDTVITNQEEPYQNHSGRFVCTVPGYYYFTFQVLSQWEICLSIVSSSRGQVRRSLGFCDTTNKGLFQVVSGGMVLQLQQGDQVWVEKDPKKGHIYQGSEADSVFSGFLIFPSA
T4 sequence (P02746 28-253 limits assumed, chain 2 of 3): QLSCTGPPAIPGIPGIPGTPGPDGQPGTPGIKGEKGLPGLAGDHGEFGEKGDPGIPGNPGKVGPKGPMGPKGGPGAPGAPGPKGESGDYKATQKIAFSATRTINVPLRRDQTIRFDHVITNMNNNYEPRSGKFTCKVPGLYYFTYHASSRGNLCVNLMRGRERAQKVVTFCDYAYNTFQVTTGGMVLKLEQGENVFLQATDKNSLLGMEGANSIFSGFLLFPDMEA
T4 sequence (P02747 29-245 limits assumed, chain 3 of 3): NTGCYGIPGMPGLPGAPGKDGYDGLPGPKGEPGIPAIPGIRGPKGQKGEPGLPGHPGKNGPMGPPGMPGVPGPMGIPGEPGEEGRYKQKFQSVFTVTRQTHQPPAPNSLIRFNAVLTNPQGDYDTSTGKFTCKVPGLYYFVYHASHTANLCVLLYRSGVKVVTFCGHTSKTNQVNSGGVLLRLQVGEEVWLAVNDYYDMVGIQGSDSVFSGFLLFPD
T1 sequence (P08637 17-254): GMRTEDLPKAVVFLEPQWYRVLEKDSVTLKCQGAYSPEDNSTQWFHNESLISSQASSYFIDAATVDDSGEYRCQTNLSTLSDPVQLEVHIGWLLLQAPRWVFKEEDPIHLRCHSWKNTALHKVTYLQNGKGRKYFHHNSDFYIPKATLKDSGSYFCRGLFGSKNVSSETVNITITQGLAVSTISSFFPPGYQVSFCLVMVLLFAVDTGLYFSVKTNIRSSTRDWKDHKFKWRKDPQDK
T2 sequence (P01024 23-1663 limits assumed): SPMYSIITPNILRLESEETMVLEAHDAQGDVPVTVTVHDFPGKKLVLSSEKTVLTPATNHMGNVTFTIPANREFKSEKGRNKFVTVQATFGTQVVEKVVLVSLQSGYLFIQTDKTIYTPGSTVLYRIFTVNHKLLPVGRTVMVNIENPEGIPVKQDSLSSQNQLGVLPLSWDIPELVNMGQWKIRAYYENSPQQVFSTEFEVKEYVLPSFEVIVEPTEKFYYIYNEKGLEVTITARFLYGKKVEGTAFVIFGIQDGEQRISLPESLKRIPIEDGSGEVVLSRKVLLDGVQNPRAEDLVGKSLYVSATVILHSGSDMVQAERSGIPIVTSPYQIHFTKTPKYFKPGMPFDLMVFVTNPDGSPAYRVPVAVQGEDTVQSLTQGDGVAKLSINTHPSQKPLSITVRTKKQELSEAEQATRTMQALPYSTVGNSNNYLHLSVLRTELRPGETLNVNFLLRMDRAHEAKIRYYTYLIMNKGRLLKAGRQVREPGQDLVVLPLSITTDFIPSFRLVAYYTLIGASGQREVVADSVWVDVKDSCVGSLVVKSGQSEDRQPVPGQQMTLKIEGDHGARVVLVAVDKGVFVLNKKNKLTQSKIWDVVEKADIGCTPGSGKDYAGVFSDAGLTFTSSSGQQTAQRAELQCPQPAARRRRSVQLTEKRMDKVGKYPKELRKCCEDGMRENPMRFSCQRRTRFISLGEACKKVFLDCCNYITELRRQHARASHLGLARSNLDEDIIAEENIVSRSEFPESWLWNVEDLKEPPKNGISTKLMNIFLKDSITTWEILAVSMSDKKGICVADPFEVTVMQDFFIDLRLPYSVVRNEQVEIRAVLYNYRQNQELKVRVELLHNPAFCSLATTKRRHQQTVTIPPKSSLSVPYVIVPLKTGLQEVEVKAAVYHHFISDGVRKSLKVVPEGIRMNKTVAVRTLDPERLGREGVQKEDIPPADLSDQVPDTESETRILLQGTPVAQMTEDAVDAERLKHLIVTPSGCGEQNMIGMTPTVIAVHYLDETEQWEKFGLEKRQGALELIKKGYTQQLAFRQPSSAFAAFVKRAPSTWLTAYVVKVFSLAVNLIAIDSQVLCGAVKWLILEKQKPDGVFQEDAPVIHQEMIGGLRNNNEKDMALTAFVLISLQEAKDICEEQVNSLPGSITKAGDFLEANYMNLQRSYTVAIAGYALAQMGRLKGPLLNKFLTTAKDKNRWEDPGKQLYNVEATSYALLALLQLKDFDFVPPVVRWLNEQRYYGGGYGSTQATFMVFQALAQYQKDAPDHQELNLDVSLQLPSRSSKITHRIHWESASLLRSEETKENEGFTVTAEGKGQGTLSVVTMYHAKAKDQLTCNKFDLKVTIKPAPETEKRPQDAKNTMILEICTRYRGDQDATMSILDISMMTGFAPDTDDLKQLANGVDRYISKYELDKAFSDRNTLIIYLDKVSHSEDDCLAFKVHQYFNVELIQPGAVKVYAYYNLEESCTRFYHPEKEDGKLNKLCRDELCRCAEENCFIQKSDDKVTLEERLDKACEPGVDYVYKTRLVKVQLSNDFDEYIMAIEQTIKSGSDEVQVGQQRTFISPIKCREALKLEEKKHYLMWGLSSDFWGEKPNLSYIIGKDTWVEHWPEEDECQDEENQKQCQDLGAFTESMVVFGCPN

B1: HuMab 002 Fc variant IgG1v1 (PVA-236; GLPSS331: E233P; L234V; L235A; delta G236; A327G; A330S; P331S) (antibody)
heavy: EVQLVESGGGLVRPGGSLRLSCAASGFTFSNYDMHWVRQATGKGLEWVSAITAAGDIYYPGSVKGRFTISRENAKNSLYLQMNSLRAGDTAVYYCARGRYSGSGSYYNDWFDPWGQGTLVTVSSASTKGPSVFPLAPSSKSTSGGTAALGCLVKDYFPEPVTVSWNSGALTSGVHTFPAVLQSSGLYSLSSVVTVPSSSLGTQTYICNVNHKPSNTKVDKKVEPKSCDKTHTCPPCPAPPVAGPSVFLFPPKPKDTLMISRTPEVTCVVVDVSHEDPEVKFNWYVDGVEVHNAKTKPREEQYNSTYRVVSVLTVLHQDWLNGKEYKCKVSNKGLPSSIEKTISKAKGQPREPQVYTLPPSRDELTKNQVSLTCLVKGFYPSDIAVEWESNGQPENNYKTTPPVLDSDGSFFLYSKLTVDKSRWQQGNVFSCSVMHEALHNHYTQKSLSLSPGK
light: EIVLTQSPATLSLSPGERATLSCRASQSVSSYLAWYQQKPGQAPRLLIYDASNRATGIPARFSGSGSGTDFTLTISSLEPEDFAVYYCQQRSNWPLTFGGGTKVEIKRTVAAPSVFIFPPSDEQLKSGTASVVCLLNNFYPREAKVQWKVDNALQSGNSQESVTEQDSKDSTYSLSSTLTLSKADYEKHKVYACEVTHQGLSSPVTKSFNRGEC
notes: copies: 2 + 2
For the molecule B1, the “% NK cells binding antibody” value in assay [1] amounted to 0.12%. The “Bmax (OD405 at 10 µg/ml)” value in assay [2] was 0.156 OD405; in assay [5], 0.0119 OD405. Further, the binding result in assay [3] was “no binding”; in assay [4], “no binding (tested: 100 µg/ml)”; in assay [6], “no binding”; in assay [8] it was “no binding (tested: 10 µg/ml)”. In assay [7], the “IC50 (read off the curve), rosetting assay with thrombin-activated cynomologus platelets and HL60 cells” value is ~0.2 µg/ml.
